Reference: US20200270321A1 (Hoffmann-La Roche, published 2020)
Where a chain is given by its changes, count along the chain named. Numbers in names are those of the source. Values belong to the binder of their own block, whether it stands above or below them.

Tests used:
[1] = biological target: T1, human fibroblast activation protein (huFAP) on cells (human, UniProt Q12884 1-760); experiment: flow cytometry on MV-3 cells; PE anti-human IgG Fc-gamma F(ab')2; MFI
T1 construct: Transfected in NIH/3T3-huFAP clone 39; also called NIH/3T3-huFAP clone 39; WM266-4

[2] = biological target: T1, human fibroblast activation protein …; experiment: flow cytometry on WM-266-4 cells; PE anti-human IgG Fc-gamma F(ab')2; MFI
[3] = biological target: T2, human 4-1BB (CD137) on cells (human, UniProt Q07011 24-255); experiment: flow cytometry on activated human T cells, gate CD4+; PE anti-human IgG Fc-gamma F(ab')2; MFI baseline corrected
T2 construct: whole, on cells; also called 4-1BB+ human T cells
T2 sequence (Q07011 24-255): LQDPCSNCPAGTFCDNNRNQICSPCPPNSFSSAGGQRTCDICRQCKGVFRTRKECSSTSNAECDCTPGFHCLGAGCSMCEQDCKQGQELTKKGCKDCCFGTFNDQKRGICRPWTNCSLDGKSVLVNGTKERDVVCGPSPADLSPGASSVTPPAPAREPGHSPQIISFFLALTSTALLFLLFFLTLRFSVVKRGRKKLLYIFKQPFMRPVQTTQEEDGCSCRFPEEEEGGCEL

[4] = biological target: T3, cyCD19 ECD (cynomolgus); experiment: binding to CD19 ECD; method not stated
T3 construct: extracellular domain; also called cynomolgus CD19 ectodomain

[5] = biological target: T4, monomeric human CD19 Fc (kih) fusion protein (human, UniProt P0DOX5 223-449 = IgG part); experiment: SPR (ProteOn XPR36), Fab from bacterial supernatant captured by anti-human Fab, monomeric CD19-Fc as analyte
T4 construct: also called monomeric CD19-Fc
Method: In order to further characterize the ELISA-positive clones, the off-rate was measured by surface plasmon resonance and compared with the parental humanized clone 8B8.
For this experiment, 7000 RU of polyclonal anti-human Fab antibody were immobilized on all 6 channels of a GLM chip by Amine coupling (NaAcetate pH4.5, 25 μl/min, 240 s) (vertical orientation). Each antibody-containing bacterial supernatant was filtered and 2-fold diluted with PBS, and then injected for 360s at 25 μl/minute to achieve immobilization levels of between 100 and 400 response units (RU) in vertical orientation. […] Regeneration was performed by two pulses of 10 mM glycine pH 1.5 and 50 mM NaOH for 30 s at 90 ul/min (horizontal orientation). Dissociation rate constants (koff) were calculated using a simple one-to-one Langmuir binding model in ProteOn Manager v3.1 software by simultaneously fitting the sensorgrams.

[6] = biological target: T5, huCD19 ECD (human, UniProt P15391 20-291); experiment: binding to CD19 ECD; method not stated
T5 construct: also called human CD19 ectodomain
T5 sequence: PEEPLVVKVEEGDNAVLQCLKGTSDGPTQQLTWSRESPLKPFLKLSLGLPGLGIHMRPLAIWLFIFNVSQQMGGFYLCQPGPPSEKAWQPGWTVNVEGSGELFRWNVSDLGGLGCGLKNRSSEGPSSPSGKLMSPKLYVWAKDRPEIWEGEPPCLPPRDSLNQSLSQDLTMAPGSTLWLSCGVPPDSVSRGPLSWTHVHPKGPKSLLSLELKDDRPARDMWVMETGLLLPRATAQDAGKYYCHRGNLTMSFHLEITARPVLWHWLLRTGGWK

- EC50 (read off the curve) [1]: ~1 nM
- EC50 (read off the curve) [2]: ~1 nM
- binding result [3]: no binding (tested: about 300 nM)
B1: bivalent binding FAP (28H1)-targeted huIgG1 P329G LALA (antibody, V domains shown)
VH: EVQLLESGGGLVQPGGSLRLSCAASGFTFSSHAMSWVRQAPGKGLEWVSAIWASGEQYYADSVKGRFTISRDNSKNTLYLQMNSLRAEDTAVYYCAKGWLGNFDYWGQGTLVTVSS
VL: EIVLTQSPGTLSLSPGERATLSCRASQSVSRSYLAWYQQKPGQAPRLLIIGASTRATGIPDRFSGSGSGTDFTLTISRLEPEDFAVYYCQQGQVIPPTFGQGTKVEIK
notes: the rest is said to be human IgG1 P329G LALA; also called FAP(28H1)-targeted hu IgG1 P329G LALA control molecule

- EC50 [4]: 0.313 µg/mL
B2: wild-type humanized anti-human CD19 antibody 8B8 (antibody, V domains shown)
VH: QVQLVQSGAEVKKPGASVKVSCKASGYTFTDYIMHWVRQAPGQGLEWMGYINPYNDGSKYTEKFNGRVTMTSDTSISTAYMELSRLRSDDTAVYYCARGTYYYGSALFDYWGQGTTVTVSS
VL: DIVMTQTPLSLSVTPGQPASISCKSSQSLENSNGNTYLNWYLQKPGQSPQLLIYRVSKRFSGVPDRFSGSGSGTDFTLKISRVEAEDVGVYYCLQLTHVPYTFGQGTKLEIK
notes: also called wt 8B8

- koff [5]: 4.37e-06 s⁻¹
B3: affinity-matured 8B8-derived clone 2B11, Fab in bacterial supernatant (Fab, V domains shown)
VH: B2 VH with N65Q, S105P, A106Q
VL: B2 VL with N31T, N33T, N35T, T97L, H98E, V99D
notes: tested as a soluble Fab from bacterial supernatant; also called 8B8-2B11; CD19 (8B8-2B11)

- EC50 [4]: 0.255 µg/mL
- EC50 [6]: 0.084 µg/mL
B4: humanized anti-human CD19 antibody clone 8B8-018 (antibody, V domains shown)
VH: B2 VH with N65Q
VL: B2 VL with S32P
notes: also called CD19 (8B8-018)
